Experimental data from paper PMC12297555.

Molecular target: T1, ScoC (Geobacillus kaustophilus strain T-1, UniProt Q5L293 1-201)
T1 sequence: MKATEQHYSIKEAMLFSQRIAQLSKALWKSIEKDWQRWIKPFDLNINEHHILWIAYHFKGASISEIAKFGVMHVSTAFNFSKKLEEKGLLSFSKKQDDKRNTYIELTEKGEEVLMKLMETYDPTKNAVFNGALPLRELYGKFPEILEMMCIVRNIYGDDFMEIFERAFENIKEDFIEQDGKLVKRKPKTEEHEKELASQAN
Assay: X-ray crystallography

B1: Oligo 4, 23-bp symmetric palindromic dsDNA (dsDNA)
DNA 1: AATATTATTAACAAAATAATATT
DNA 2: AATATTATTTTGTTAATAATATT
- binding result: binds
